According to patent US20180085476:

Tested on: T1, promolecule containing protonectin (portion A), PR linker (X2) and PAR-1 exosite recognition sequence (portion Z), Cy3 on an N-terminal lysine
T1 sequence: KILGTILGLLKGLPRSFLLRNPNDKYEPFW

## thrombin
  KM (Michaelis-Menten, digestion followed by reverse phase HPLC): KM 200 nM
  kcat/KM (Michaelis-Menten, digestion followed by reverse phase HPLC): kcat/KM=8 µM^-1 sec^-1
